# From the RNAGym collection of RNA variant scans (doi:10.1021/acssynbio.7b00057)
# B1: Pistol ribozyme (parent)
# chain: GGGUCGUUGUUCCAUAAUCGCGUGGAUAUGGCACGCAAGUUUCUACCGGGCACCGUAAAUGUCCGACUGGAGCCGUUCGGGCGGCUAUAAACAGACCUCAGGCCCGAAGCGUGGCGGCACCUGCCGCCGGUGGUAAAAAAGAUCGGAAGAGCACACGUCU
# Variants of: B1
# Assay: aptazyme ON/OFF ratio, guanine; higher = stronger switching; co-transcriptional cleavage with and without guanine
row,Variant,aptazyme ON/OFF ratio
1,U7C G9C U11A C12A C13U,1.04
2,U7C G9C U11A C12A C13G,1.07
3,U7C G9C U11A C12A C13A,1.08
4,U7C G9U U11C C12U C13U,1.13
5,U7C G9U U11C C12U C13G,1.05
6,U7C G9U U11C C12U C13A,1.12
7,U7C G9U U10G C12G C13G,1.12
8,U7C G9U U10G C12G C13A,1.2
9,U7C G9U U10G C12G C13U,1.11
10,U7C G9U,1.05
11,U7C G9C U11C C12A,1.03
12,U7C G9C U11C C12U,1.04
13,U7C G9C U11C C12G,1.04
14,U7C U8A G9A C12A C13G,1.2
15,U7C U8A G9A C12A C13A,1.21
16,U7C G9U U10G U11G C12U,1.16
17,U7C G9U U10G U11G C12G,1.14
18,U7C G9U U10G U11G C12A,1.22
19,U7C G9U U10C U11G C12A C13G,1.1
20,U7C G9U U10C U11G C12A C13U,1.11
21,U7C G9U U10C U11G C12A C13A,1.11

row,Variant,aptazyme ON/OFF ratio
1,U7C G9U U10C C13A,1.04
2,U7C G9U U10C C13U,1.5
3,U7C G9U U10C C13G,1.06
4,U7C U8A C12G C13U,1.3
5,U7C U8A C12G C13G,1.23
6,U7C U8A C12G C13A,1.14
7,U7C G9U U10A U11C C12A C13A,1.22
8,U7C G9U U10A U11C C12A C13U,1.23
9,U7C G9U U10A U11C C12A C13G,1.14
10,U7C G9U U10C U11G C12G C13A,1.1
11,U7C G9U U10C U11G C12G C13U,1.11
12,U7C G9U U10C U11G C12G C13G,1.11
13,U7C G9U U10C C12G C13U,1.07
14,U7C G9U U10C C12G C13G,1.06
15,U7C G9U U10C C12G C13A,1.05
16,U7C G9U U10A U11G C12A C13A,1.05
17,U7C G9U U10A U11G C12A C13G,1.1
18,U7C G9U U10A U11G C12A C13U,1.18
19,U7C G9U U10A U11G C12G C13U,1.16
20,U7C G9U U10A U11G C12G C13A,1.1
21,U7C G9U U10A U11G C12G C13G,1.14

row,Variant,aptazyme ON/OFF ratio
1,U7C G9U U10A C12U C13U,1.22
2,U7C G9U U10A C12U C13G,1.11
3,U7C G9U U10A C12U C13A,1.15
4,U7C G9U U10A U11G,1.31
5,U7C G9U U10A U11A,1.42
6,U7C G9U U10A U11C,1.06
7,U7C G9U U10G U11G C12A C13U,1.17
8,U7C G9U U10G U11G C12A C13A,1.1
9,U7C G9U U10G U11G C12A C13G,1.1
10,U7C G9U U10G U11G C13G,1.1
11,U7C G9U U10G U11G C13A,1.09
12,U7C G9U U10G U11G C13U,1.1
13,U7C G9C U10G U11G C12G C13U,1.09
14,U7C G9C U10G U11G C12G C13G,1.11
15,U7C G9C U10G U11G C12G C13A,1.08
16,U7C G9U U10C U11G C12U C13A,1.14
17,U7C G9U U10C U11G C12U C13U,1.16
18,U7C G9U U10C U11G C12U C13G,1.15
19,U7C G9U U10G C12U C13A,1.2
20,U7C G9U U10G C12U C13U,1.69
21,U7C G9U U10G C12U C13G,1.15

row,Variant,aptazyme ON/OFF ratio
1,U7C G9C U10G U11G C12U C13A,1.07
2,U7C G9C U10G U11G C12U C13G,1.13
3,U7C G9C U10G U11G C12U C13U,1.12
4,U7C G9U C13A,1.04
5,U7C G9U C13G,1.04
6,U7C G9U C13U,1.06
7,U7C G9C U11G C12U C13G,1.12
8,U7C G9C U11G C12U C13U,1.21
9,U7C G9C U11G C12U C13A,1.1
10,U7C G9U U10A U11A C13U,1.25
11,U7C G9U U10A U11A C13G,1.04
12,U7C G9U U10A U11A C13A,1.26
13,U7C G9U U11G,1.35
14,U7C G9U U11A,1.41
15,U7C G9U U11C,1.12
16,U7C G9U U10C C12A C13G,1.09
17,U7C G9U U10C C12A C13U,1.09
18,U7C G9U U10C C12A C13A,1.09
19,U7C G9U U10A C12G C13A,1.24
20,U7C G9U U10A C12G C13U,1.27
21,U7C G9U U10A C12G C13G,1.13
